# Literature values as cited in publication PMC6731456.
# Molecular target: Apelin receptor (Homo sapiens) (UniProt P35414)
# Chain of UniProt P35414 (P35414 whole entry): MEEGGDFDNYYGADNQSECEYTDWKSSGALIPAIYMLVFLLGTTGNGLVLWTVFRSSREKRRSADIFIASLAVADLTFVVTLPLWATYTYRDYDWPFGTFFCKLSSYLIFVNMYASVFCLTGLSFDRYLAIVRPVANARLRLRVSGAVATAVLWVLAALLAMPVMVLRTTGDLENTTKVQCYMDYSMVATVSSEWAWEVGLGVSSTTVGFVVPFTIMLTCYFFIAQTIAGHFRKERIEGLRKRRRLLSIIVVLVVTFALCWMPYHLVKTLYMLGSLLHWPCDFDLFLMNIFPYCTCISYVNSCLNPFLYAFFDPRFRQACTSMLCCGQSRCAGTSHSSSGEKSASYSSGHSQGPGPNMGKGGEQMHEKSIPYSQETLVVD
substance,measurement,value
Protamine (from UniProt P69014),Ki,390 nM
